Laboratory results taken from PMC4891089, “The transcription factor GATA1 and the histone methyltransferase SET7 interact to promote VEGF-mediated angiogenesis and tumor growth and predict clinical outcome of breast cancer” (Oncotarget, 2016).

Target: T1, His-tagged GATA1 (UniProt P15976 1-413)
T1 construct: GATA1; also called purified His-tagged GATA1 protein; source: His fusion from pET-28a, expressed and purified according to the manufacturers' instructions (Qiagen)
Experiment: pull-down; GST pull-down: purified His fusion protein incubated with GST fusion protein bound to GST beads for 4 h at 4°C; immunoblot
Settings: both partners purified

T1 sequence (P15976 whole entry, the tested form may be a part): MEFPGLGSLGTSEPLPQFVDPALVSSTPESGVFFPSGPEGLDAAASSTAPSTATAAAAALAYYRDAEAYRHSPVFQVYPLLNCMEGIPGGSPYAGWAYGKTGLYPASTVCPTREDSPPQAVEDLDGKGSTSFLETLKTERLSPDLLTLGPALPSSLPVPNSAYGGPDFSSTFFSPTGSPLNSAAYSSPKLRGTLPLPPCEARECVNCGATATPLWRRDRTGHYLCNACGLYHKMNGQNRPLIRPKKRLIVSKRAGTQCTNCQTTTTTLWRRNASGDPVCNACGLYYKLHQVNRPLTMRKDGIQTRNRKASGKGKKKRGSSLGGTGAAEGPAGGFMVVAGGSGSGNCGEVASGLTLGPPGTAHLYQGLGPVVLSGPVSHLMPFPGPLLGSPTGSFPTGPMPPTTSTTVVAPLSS

binding result: binds
B1: GST-SET7 (enzyme, UniProt Q8WTS6 1-366, looked up)
chain: MDSDDEMVEEAVEGHLDDDGLPHGFCTVTYSSTDRFEGNFVHGEKNGRGKFFFFDGSTLEGYYVDDALQGQGVYTYEDGGVLQGTYVDGELNGPAQEYDTDGRLIFKGQYKDNIRHGVCWIYYPDGGSLVGEVNEDGEMTGEKIAYVYPDERTALYGKFIDGEMIEGKLATLMSTEEGRPHFELMPGNSVYHFDKSTSSCISTNALLPDPYESERVYVAESLISSAGEGLFSKVAVGPNTVMSFYNGVRITHQEVDSRDWALNGNTLSLDEETVIDVPEPYNHVSKYCASLGHKANHSFTPNCIYDMFVHPRFGPIKCIRTLRAVEADEELTVAYGYDHSPPGKSGPEAPEWYQVELKAFQATQQK
notes: SET7 (SETD7); also called purified GST-SET7; source: GST fusion from pGEX-KG, expressed and purified according to the manufacturers' instructions (Amersham Pharmacia)
